The target in assay [1] is apical domain of CD71 (Screen 3: 'cynomolgus apical domain of human CD71') (cynomolgus (as paragraph 454 words it; ambiguous)). Nature of the assay: primary ELISA.
The target is the same in assay [2]. Description: primary ELISA, RLU ratio to HSA. Background: An ELISA detects its analyte on a solid surface through an enzyme-linked reagent.

B1: CD71-binding FN3 domain SEQ ID NO: 246 (designed binder)
chain: MSLPAPKNLVVSRVTEDSARLSWTAPDAAFDSFEIAYQELSLWGEAIVLTVPGSERSYDLTGLKPGTEYYVHIGGVKGGIWSSPLSAYFTT
On to B1, for which, in assay [1], the RLU stood at 6.18e+06 RLU. In assay [2], the Apical domain:HSA is 609.

B2: CD71-binding FN3 domain SEQ ID NO: 234 (designed binder)
chain: MSLPAPKNLVVSRVTEDSARLSWTAPDAAFDSFFIGYLEPQPPGEAIALYVPGSERSYDLTGLKPGTEYNVTIQGVKGGFPSEPLVAHFTT
For B2, the RLU in assay [1] is 7.51e+06 RLU. Also, in assay [2], the Apical domain:HSA was determined as 798.

B3: CD71-binding FN3 domain SEQ ID NO: 243 (designed binder)
chain: MSLPAPKNLVVSRVTEDSARLSWTAPDAAFDSFFIGYLEPQPPGEAIHLYVPGSERSYDLTGLKPGTEYNVTIQGVKGGEWSAPLSAIFTT
In turn, B3 came in with an RLU in assay [1] of 4.57e+06 RLU. In assay [2], the Apical domain:HSA came to 582.

B4: CD71-binding FN3 domain SEQ ID NO: 235 (designed binder)
chain: MSLPAPKNLVVSRVTEDSARLSWTAPDAAFDSFEIVYAEPVRFGEAIVLTVPGSERSYDLTGLKPGTEYWVQIGGVKGGNWSAPLSAIFTT
On to B4, for which the RLU in assay [1] is 5.63e+06 RLU. The Apical domain:HSA in assay [2] stood at 558.

B5: CD71-binding FN3 domain SEQ ID NO: 236 (designed binder)
chain: MSLPAPKNLVVSRVTEDSARLSWTEPDAAFDSFEIGYFENLYLGEAIVLTVPGSERSYDLTGLKPGTEYWVQIGGVKGGNWSAPLSAIFTT
B5: the RLU in assay [1] worked out at 5.32e+06 RLU. In addition, the Apical domain:HSA in assay [2] came to 164.

B6: CD71-binding FN3 domain SEQ ID NO: 239 (designed binder)
chain: MSLPAPKNLVVSRVTEDSARLSWTAPDAAFDSFEIVYQENSAYGEAIVLTVPGSERSYDLTGLKPGTEYWVQIGGVKGGNWSAPLSAIFTT
B6 gave an RLU in assay [1] of 5.4e+06 RLU. The Apical domain:HSA in assay [2] is 442.

B7: CD71-binding FN3 domain SEQ ID NO: 237 (designed binder)
chain: MSLPAPKNLVVSRVTEDSARLSWTAPDAAFDSFEIAYFERTWFGEAIVLTVPGSERSYDLTGLKPGTEYWVQIGGVKGGDWSKPLSAIFTT
In assay [1], B7 displayed an RLU of 5.01e+06 RLU. In assay [2], the Apical domain:HSA stood at 672.

B8: CD71-binding FN3 domain SEQ ID NO: 242 (designed binder)
chain: MSLPAPKNLVVSRVTEDSARLSWTAPDAAFDSFEIGYFENLYLGEAIVLTVPGSERSYDLTGLKPGTKYWVQIGGVKGGNWSAPLSAIFTT
Regarding B8, in assay [1], the RLU stood at 4.84e+06 RLU. For the same molecule, the Apical domain:HSA in assay [2] came out at 493.

B9: CD71-binding FN3 domain SEQ ID NO: 238 (designed binder)
chain: MSLPAPKNLVVSRVTEDSARLSWTAPDAAFDSFEIGYFENDYFGEAIVLTVPGSERSYDLTGLKPGTEYVVFIGGVKGGKWSAPLSAIFTT
Molecule B9 registered an RLU in assay [1] of 6.39e+06 RLU. The Apical domain:HSA in assay [2] amounted to 954.

B10: CD71-binding FN3 domain SEQ ID NO: 245 (designed binder)
chain: MSLPAPKNLVVSRVTEDSARLSWTAPDAAFDSFEISYWEHTFNGEAIILFVPGSERSYDLTGLKPGTEYYVTIGGVKGGAWSPPLWAHFTT
On to B10, for which the RLU in assay [1] turned out to be 6.07e+06 RLU. In assay [2], the Apical domain:HSA was found to be 610.

B11: CD71-binding FN3 domain SEQ ID NO: 241 (designed binder)
chain: MSLPAPKNLVVSRVTEDSARLSWTAPDAAFDSFMIAYDEFIVWGEAVVLTVPGSERSYDLTGLKPGTEYLVEILGVKGGTISGPLSAIFTT
Take B11: the RLU in assay [1] stood at 6.21e+06 RLU. In addition, the Apical domain:HSA in assay [2] was found to be 324.

B12: CD71-binding FN3 domain SEQ ID NO: 240 (designed binder)
chain: MSLPAPKNLVVSRVTEDSARLSWTAPDAAFDSFHIWYFEKANEGEAIPLVVPGSERSYDLTGLKPGTEYDVDIGGVKGGAWSIPLGARFTT
In assay [1], B12 returned an RLU of 6.83e+06 RLU. Moreover, the Apical domain:HSA in assay [2] was found to be 71.

B13: CD71-binding FN3 domain SEQ ID NO: 244 (designed binder)
chain: MSLPAPKNLVVSRVTEDSARLSWTAPDAAFDSFEIGYFENLYLGEAIVLTVPGSERSYDLTGLKPGTEYVVFIGGVKGGEYSIPLSAIFTT
As for B13, the RLU in assay [1] came to 5.23e+06 RLU. In assay [2], the Apical domain:HSA was found to be 630.

The record behind these values is patent US20260151494A1.
